Assay [1] has as its target T1, ST receptor (rat intestinal membrane) (rat), P23897.
T1 chain: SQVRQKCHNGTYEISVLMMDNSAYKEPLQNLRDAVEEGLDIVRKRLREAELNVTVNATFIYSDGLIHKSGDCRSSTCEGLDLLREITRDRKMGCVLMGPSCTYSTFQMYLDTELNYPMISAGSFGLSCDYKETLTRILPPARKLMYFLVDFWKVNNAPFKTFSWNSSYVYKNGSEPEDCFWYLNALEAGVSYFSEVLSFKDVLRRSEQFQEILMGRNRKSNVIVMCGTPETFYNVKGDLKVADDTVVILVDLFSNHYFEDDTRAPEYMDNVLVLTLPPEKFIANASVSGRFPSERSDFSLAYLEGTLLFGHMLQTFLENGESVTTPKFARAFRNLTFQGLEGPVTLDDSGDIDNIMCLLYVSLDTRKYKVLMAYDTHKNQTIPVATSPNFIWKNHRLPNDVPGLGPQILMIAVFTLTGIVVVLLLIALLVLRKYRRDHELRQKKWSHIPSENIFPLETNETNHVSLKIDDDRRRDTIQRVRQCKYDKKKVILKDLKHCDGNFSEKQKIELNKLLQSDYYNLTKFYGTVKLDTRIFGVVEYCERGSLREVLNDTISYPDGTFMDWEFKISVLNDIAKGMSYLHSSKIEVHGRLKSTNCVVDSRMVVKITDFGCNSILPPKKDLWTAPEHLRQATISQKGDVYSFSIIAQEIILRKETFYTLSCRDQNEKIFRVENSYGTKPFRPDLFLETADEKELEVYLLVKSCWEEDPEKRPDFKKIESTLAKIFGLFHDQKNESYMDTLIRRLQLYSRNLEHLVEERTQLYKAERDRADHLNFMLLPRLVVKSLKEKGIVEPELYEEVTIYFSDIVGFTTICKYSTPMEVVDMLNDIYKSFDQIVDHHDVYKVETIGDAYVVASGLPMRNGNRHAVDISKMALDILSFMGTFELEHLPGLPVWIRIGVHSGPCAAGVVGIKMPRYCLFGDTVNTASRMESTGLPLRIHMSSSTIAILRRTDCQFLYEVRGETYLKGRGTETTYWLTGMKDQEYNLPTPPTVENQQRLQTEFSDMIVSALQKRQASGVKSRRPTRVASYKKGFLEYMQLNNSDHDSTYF

Assay [2] deals with T1, ST receptor (rat intestinal membrane) …. In words: radioligand competition binding against [125I]ST1-17 on rat intestinal membrane.
The target is the same in assay [3]. In words: radioactive binding assay, labelled compound ca. 0.05 nM on rat intestinal membrane, filtration.

Where “and” joins values, the source holds several entries; their conditions need not be identical. Equal entries are not always repeated. Where two headings read alike, the source gives them in different places. Square brackets hold non-standard residues; d marks the D form. Ends that are not written are not given here.

B1: CA1-ST5-18 (peptide)
peptide: CCELCCNPACAGCY
modifications: not checked
In the case of B1, in assay [1], the inhibition constant (Ki) – broadly, a measure of affinity in units of concentration, obtained from inhibition or displacement – is 2.8 nM and 3.5 nM. Further, in assay [2], the inhibition constant Ki came to 2.8 nM and the fold reduction in binding efficacy against the unconjugated ST peptide stood at 10 fold.

B2: CA1-(Gly)3-(D-Glu)3-ST5-18 (peptide)
peptide: GGG[dE][dE][dE]CCELCCNPACAGCY
modifications: not fully specified (N-terminus); cysteine pairing not given here
Consider B2, for which, in assay [2], the Ki was 1 nM.

B3: CA1-(Lys)6-Gly-ST5-18 (peptide)
peptide: KKKKKKGCCELCCNPACAGCY
modifications: not checked
For the molecule B3, in assay [2], the Ki came out at 72 nM. This Ki lies about 72-fold higher than the previous one.

B4: ST5-18 (peptide)
peptide: CCELCCNPACAGCY
modifications: not checked
For B4, in assay [2], the Ki was 0.4 nM.

B5: CA3-ST5-18 (peptide)
peptide: CCELCCNPACAGCY
modifications: not checked
As for B5, the Ki in assay [2] came out at 0.8 nM.

B6: 99mTc-labelled CA1-ST5-18 (peptide)
peptide: CCELCCNPACAGCY
modifications: not checked
In the case of B6, in assay [3], the binding, % of total added was found to be 6%.

(Values after patent US20060222593A1.)
